The target of one test is Hrd1-SBP (S. cerevisiae) (UniProt Q08109). Briefly: pull-down.
A further test has as its target T1, Hrd1-SBP (S. cerevisiae, UniProt Q08109 1-551).
T1 sequence (looked up): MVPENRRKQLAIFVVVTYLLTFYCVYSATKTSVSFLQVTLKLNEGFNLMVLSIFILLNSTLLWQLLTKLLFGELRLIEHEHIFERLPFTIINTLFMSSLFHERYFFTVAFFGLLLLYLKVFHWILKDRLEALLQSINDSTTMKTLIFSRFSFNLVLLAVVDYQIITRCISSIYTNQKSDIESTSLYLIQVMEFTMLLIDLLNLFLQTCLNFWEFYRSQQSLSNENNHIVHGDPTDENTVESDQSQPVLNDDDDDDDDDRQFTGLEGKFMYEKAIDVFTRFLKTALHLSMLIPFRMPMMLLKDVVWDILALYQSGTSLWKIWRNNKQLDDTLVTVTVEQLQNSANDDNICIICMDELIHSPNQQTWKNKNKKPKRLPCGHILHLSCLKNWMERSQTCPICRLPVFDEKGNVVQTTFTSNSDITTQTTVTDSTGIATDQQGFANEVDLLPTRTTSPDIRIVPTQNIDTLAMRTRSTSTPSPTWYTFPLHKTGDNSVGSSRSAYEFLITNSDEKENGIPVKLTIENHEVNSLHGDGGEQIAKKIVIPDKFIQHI
Put plainly: pull-down.

As usually defined, the Kd is the free concentration of one partner at which half of the binding sites on the other are occupied at equilibrium, for simple one-to-one binding. A lower Kd goes with higher affinity. In turn, “misfolded carboxypeptidase Y (CPY*) (from UniProt P00729 21-532) (natural protein)” showed a Kd with Hrd1-SBP (S. cerevisiae) of 20 nM.

B1: CPY-TM (other)
chain: ISLQRPLGLDKDVLLQAAEKFGLDLDLDHLLKELDSNVLDAWAQIEHLYPNQVMSLETSTKPKFPEAIKTKKDWDFVVKNDAIENYQLRVNKIKDPKILGIDPNVTQYTGYLDVEDEDKHFFFWTFESRNDPAKDPVILWLNGGPGCSSLTGLFFELGPSSIGPDLKPIGNPYSWNSNATVIFLDQPVNVGFSYSGSSGVSNTVAAGKDVYNFLELFFDQFPEYVNKGQDFHIAGESYAGHYIPVFASEILSHKDRNFNLTSVLIGNGLTDPLTQYNYYEPMACGEGGEPSVLPSEECSAMEDSLERCLGLIESCYDSQSVWSCVPATIYCNNAQLAPYQRTGRNVYDIRKDCEGGNLCYPTLQDIDDYLNQDYVKEAVGAEVDHYESCNFDINRNFLFAGDWMKPYHTAVTDLLNQDLPILVYAGDKDFICNWLGNKAWTDVLPWKYDEEFASQKVRNWTASITDEVAGEVKSYKHFTYLRVFNGGHMVPFDVPENALSMVNEWIHGGFSLNYGIFICYIAFNYIAGVFFYWLA
modifications: DyLight800 at the C-terminus, attached with sortase (GGGC-coupled fluorophore)
As for B1, the Kd with Hrd1-SBP was roughly 120 nM.

B2: CPY*-TM2 (other)
chain: ISLQRPLGLDKDVLLQAAEKFGLDLDLDHLLKELDSNVLDAWAQIEHLYPNQVMSLETSTKPKFPEAIKTKKDWDFVVKNDAIENYQLRVNKIKDPKILGIDPNVTQYTGYLDVEDEDKHFFFWTFESRNDPAKDPVILWLNGGPGCSSLTGLFFELGPSSIGPDLKPIGNPYSWNSNATVIFLDQPVNVGFSYSGSSGVSNTVAAGKDVYNFLELFFDQFPEYVNKGQDFHIARESYAGHYIPVFASEILSHKDRNFNLTSVLIGNGLTDPLTQYNYYEPMACGEGGEPSVLPSEECSAMEDSLERCLGLIESCYDSQSVWSCVPATIYCNNAQLAPYQRTGRNVYDIRKDCEGGNLCYPTLQDIDDYLNQDYVKEAVGAEVDHYESCNFDINRNFLFAGDWMKPYHTAVTDLLNQDLPILVYAGDKDFICNWLGNKAWTDVLPWKYDEEFASQKVRNWTASITDEVAGEVKSYKHFTYLRVFNGGHMVPFDVPENALSMVNEWIHGGFSLMLLFFWIPLTLVLLLCFTLSNL
modifications: DyLight800 at the C-terminus, attached with sortase (GGGC-coupled fluorophore)
Consider B2, for which the Kd with Hrd1-SBP is roughly 30 nM.

B3: CPY-TM2 (other)
chain: ISLQRPLGLDKDVLLQAAEKFGLDLDLDHLLKELDSNVLDAWAQIEHLYPNQVMSLETSTKPKFPEAIKTKKDWDFVVKNDAIENYQLRVNKIKDPKILGIDPNVTQYTGYLDVEDEDKHFFFWTFESRNDPAKDPVILWLNGGPGCSSLTGLFFELGPSSIGPDLKPIGNPYSWNSNATVIFLDQPVNVGFSYSGSSGVSNTVAAGKDVYNFLELFFDQFPEYVNKGQDFHIAGESYAGHYIPVFASEILSHKDRNFNLTSVLIGNGLTDPLTQYNYYEPMACGEGGEPSVLPSEECSAMEDSLERCLGLIESCYDSQSVWSCVPATIYCNNAQLAPYQRTGRNVYDIRKDCEGGNLCYPTLQDIDDYLNQDYVKEAVGAEVDHYESCNFDINRNFLFAGDWMKPYHTAVTDLLNQDLPILVYAGDKDFICNWLGNKAWTDVLPWKYDEEFASQKVRNWTASITDEVAGEVKSYKHFTYLRVFNGGHMVPFDVPENALSMVNEWIHGGFSLMLLFFWIPLTLVLLLCFTLSNL
modifications: DyLight800 at the C-terminus, attached with sortase (GGGC-coupled fluorophore)
In the test with Hrd1-SBP, B3 yielded a Kd of roughly 110 nM.
